The values that follow are results of earlier work, collected in publication PMC3589424.

For orientation: Kd means the constant that tells how readily two partners part at equilibrium.

This data set deals with CD47 (Homo sapiens) (UniProt Q08722).
Chain of UniProt Q08722 (Q08722 19-323): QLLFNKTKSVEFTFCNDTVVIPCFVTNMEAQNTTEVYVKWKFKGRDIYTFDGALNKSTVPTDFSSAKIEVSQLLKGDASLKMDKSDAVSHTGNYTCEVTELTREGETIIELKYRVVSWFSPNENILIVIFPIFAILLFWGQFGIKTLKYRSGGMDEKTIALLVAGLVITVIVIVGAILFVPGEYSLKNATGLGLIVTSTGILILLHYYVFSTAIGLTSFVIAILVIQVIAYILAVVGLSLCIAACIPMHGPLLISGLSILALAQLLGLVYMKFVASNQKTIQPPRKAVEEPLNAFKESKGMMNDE

As for SIRPα (from UniProt P78324), the Kd was 2000 nM.
